Experimental data reported in publication doi:10.1101/2020.09.10.291369, “In vivo and in vitro mechanistic characterization of a clinically relevant PolγA mutation”.

Biological target: T1, POLγA A449T (UniProt P54099 26-1218, A450T)
T1 sequence: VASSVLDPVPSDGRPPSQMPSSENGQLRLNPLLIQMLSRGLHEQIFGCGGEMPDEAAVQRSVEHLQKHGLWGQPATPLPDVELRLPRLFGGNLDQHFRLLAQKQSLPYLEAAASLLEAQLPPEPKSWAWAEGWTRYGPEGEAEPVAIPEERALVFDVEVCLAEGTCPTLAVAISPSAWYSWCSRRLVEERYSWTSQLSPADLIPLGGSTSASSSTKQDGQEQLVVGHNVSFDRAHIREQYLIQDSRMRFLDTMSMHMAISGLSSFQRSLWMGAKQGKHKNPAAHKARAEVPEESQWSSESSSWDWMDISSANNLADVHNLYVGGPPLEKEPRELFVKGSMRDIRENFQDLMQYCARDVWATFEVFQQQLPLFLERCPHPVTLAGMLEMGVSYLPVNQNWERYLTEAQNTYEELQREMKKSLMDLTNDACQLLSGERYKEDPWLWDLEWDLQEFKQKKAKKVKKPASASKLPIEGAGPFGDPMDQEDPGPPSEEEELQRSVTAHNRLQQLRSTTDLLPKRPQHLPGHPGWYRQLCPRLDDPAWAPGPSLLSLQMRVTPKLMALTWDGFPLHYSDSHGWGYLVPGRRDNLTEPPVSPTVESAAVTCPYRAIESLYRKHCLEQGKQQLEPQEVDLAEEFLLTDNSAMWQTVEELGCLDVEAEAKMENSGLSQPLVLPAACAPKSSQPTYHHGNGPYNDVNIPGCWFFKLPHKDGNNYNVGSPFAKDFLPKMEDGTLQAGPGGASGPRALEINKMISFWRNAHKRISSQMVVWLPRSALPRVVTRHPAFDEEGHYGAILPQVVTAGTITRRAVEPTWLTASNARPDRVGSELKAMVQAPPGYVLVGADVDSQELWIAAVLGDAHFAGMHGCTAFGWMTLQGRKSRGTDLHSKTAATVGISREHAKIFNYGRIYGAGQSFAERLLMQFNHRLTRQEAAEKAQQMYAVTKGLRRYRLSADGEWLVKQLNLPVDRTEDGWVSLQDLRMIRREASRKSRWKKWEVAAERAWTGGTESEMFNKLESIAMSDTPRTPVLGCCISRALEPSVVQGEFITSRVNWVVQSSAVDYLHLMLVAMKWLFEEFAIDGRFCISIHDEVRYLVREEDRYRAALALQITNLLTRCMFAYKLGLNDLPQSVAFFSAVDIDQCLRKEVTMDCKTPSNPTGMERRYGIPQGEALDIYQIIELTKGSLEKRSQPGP
Experiment: EMSA; POLγA alone; 10 mM MgCl2, ddGTP, dCTP, ATP; Kd in Suppl. Fig. 5A, value not in material; EMSA: 10 fmol DNA in 15 µl, 20 mM Tris-HCl pH 7.8, 1 mM DTT, 0.1 mg/ml BSA, 10 mM MgCl2, 10% glycerol, 2 mM ATP, 0.3 mM ddGTP, 3 mM dCTP, RT 10 min; 6% native PAGE 0.5x TBE
Conditions: protein: recombinant; label: 5'-32P on strand 2 (21-mer); 5' overhang 15 nt on strand 1; 21 bp duplex; primer-template

B1: 36-nt/21-nt primed template (mixed)
DNA 1: TTTTTTTTTTATCCGGGCTCCTCTAGACTCGACCGC
DNA 2: GCGGTCGAGTCTAGAGGAGCC
  binding signal: ~3.4 fold weaker than WT
